# Several values for one entry are separate records, joined by “and”; a condition that tells them apart may be missing. Equal entries are not always repeated. Non-standard residues stand in square brackets, D forms with d. Residues, ends and D or L forms follow the SMILES beside them. No end group written: not given here. βAla = NCCC(=O)O
# Target: T1, association of L HBsAg with HBcAg (Hepatitis B virus genotype D subtype adw, UniProt P03147)
# T1 construct: Purification of Particles Comprising Full-Length or Truncated HBcAg; made in house; host or cells: HBcAg: E. coli RB 791; L HBsAg: in vitro translation in rabbit reticulocyte lysate with canine pancreatic microsomal membranes
# T1 sequence (P03147 whole entry, the tested form may be a part): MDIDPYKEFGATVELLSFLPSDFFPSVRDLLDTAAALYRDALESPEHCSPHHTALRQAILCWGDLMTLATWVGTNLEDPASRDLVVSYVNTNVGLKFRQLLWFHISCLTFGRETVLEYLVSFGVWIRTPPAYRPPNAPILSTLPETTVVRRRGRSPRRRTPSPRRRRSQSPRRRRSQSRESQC
# Test: biochemical
# Assay type: binding
# Conditions: not given
# Description: Inhibitors of the Association of HBsAg with HBcAg. The assay system developed for inhibitors of the interaction between HBsAg and HBcAg involved incubating purified membrane-inserted ^35S-labeled L polypeptide in HBcAg-coated wells and quantitating bound protein by scintillation counting. […] The principal target for polyclonal antibodies to the native, particulate S HBsAg resides between as 110 and aa 150 (31-33). […] However, large molecules, such as immunoglobulins, can cause stearic hindrance over a considerable distance in any compound to which they bind.
# Inhibition of Membrane-Inserted L-Protein Binding to HBcAg by Antibodies and Peptides. Canine pancreatic microsomal membranes containing labeled protein were purified by layering the translation mixture (60 μl) on a 4-ml step gradient of 1-ml intervals of 77% (wt/vol), 30%, 20%, and 10% sucrose containing 20 mM Hepes (adjusted to pH 7.5 with NaOH)/2 mM dithiothreitol for fractionation by centrifugation (50,000 rpm, 2 hr at 4° C.; Sorvall model TsT 60.4 rotor). […] Sucrose gradient-purified L protein (4 μl) was diluted with NET-gel buffer (100 μl) containing various dilutions of either antibody or peptide for inhibition assays. Mixtures were incubated in HBcAg-coated wells (as in the paragraph Isolation of Phage that Bind to HBcAg) for 2 ½ hr at 4° C. and washed five times with NET-gel buffer with 10-min intervals. Wells were placed in scintillation vials containing Ecoscint A (5 ml; National Diagnostics) for quantitation of radioactivity.
row,Molecule,inhibition of the reaction between L HBsAg and HBcAg (in words)
1,"ALLTRILG (HBV Core Antigen Binding Peptide) [peptide including aa 21-27 of the S region, reference compound]",no inhibitory properties
2,GRMKG (not fully specified),no inhibitory properties

# Same assay, conditions: IC50: concentration of peptide required to inhibit the binding of L HBsAg to HBcAg at a half maximal level, free peptide; HBcAg-coated wells
row,Molecule,IC50
1,CSCC[C@H](NC(=O)[C@H](CCCNC(=N)N)NC(=O)CNC(=O)[C@H](CC(C)C)NC(=O)[C@H](CC(C)C)NC(=O)[C@H](CO)NC(=O)CNC(=O)[C@H](CC(=O)O)NC(=O)[C@H](C)N)C(=O)N[C@@H](CCCCN)C(=O)NCC(=O)N[C@@H](C)C(=O)N[C@@H](C)C(=O)NCC(=O)O,4.5 ± 0.8 µM
2,CSCC[C@H](NC(=O)[C@H](CCCNC(=N)N)NC(=O)CNC(=O)[C@H](CC(C)C)NC(=O)[C@H](CC(C)C)NC(=O)[C@H](CO)NC(=O)CNC(=O)[C@@H](N)CC(=O)O)C(=O)N[C@@H](CCCCN)C(=O)NCC(=O)N[C@@H](C)C(=O)N[C@@H](C)C(=O)O,3 ± 0.4 µM
3,CSCC[C@H](NC(=O)[C@H](CCCNC(=N)N)NC(=O)CNC(=O)[C@H](CC(C)C)NC(=O)[C@H](CC(C)C)NC(=O)[C@H](CO)NC(=O)CN)C(=O)N[C@@H](CCCCN)C(=O)NCC(=O)N[C@@H](C)C(=O)O,0.79 ± 0.23 µM
4,CSCC[C@H](NC(=O)[C@H](CCCNC(=N)N)NC(=O)CNC(=O)[C@H](CC(C)C)NC(=O)[C@H](CC(C)C)NC(=O)[C@H](CO)NC(=O)[C@H](CCCNC(=N)N)NC(=O)[C@H](Cc1cnc[nH]1)NC(=O)[C@@H](N)CCSC)C(=O)N[C@@H](CCCCN)C(=O)NCC(=O)N[C@@H](C)C(=O)O,0.8 ± 0.1 µM
5,CSCC[C@H](NC(=O)[C@H](CCCNC(=N)N)NC(=O)CNC(=O)[C@H](CC(C)C)NC(=O)[C@H](CC(C)C)NC(=O)[C@H](CO)NC(=O)[C@H](CCCNC(=N)N)NC(=O)[C@H](Cc1c[nH]cn1)NC(=O)[C@@H](N)CCSC)C(=O)N[C@@H](CCCCN)C(=O)NCC(=O)N[C@@H](C)C(=O)NCC(=O)NCCC(=O)NCC(=O)N[C@@H](CS)C(=O)O,3.8 ± 0.69 µM
6,CSCC[C@H](NC(=O)[C@H](CCCNC(=N)N)NC(=O)CNC(=O)[C@H](CC(C)C)NC(=O)[C@H](CC(C)C)NC(=O)[C@H](CO)NC(=O)[C@@H](N)CCCNC(=N)N)C(=O)N[C@@H](CCCCN)C(=O)NCC(=O)N[C@@H](C)C(=O)O,0.29 ± 0.02 µM
7,CSCC[C@H](NC(=O)[C@H](CCCNC(=N)N)NC(=O)CNC(=O)[C@H](CC(C)C)NC(=O)[C@H](CC(C)C)NC(=O)[C@H](CO)NC(=O)[C@@H](N)CCCNC(=N)N)C(=O)N[C@@H](CCCCN)C(=O)NCC(=O)N[C@@H](C)C(=O)NCCC(=O)N[C@@H](CS)C(=O)O,0.29 ± 0.03 µM
8,CSCC[C@H](NC(=O)[C@H](CCCNC(=N)N)NC(=O)CNC(=O)[C@H](CC(C)C)NC(=O)[C@H](CC(C)C)NC(=O)[C@@H](N)CO)C(=O)N[C@@H](CCCCN)C(=O)NCC(=O)NCCC(=O)N[C@@H](CS)C(=O)O (H-SLLGRMKG[βAla]C-OH),1.8 ± 0.4 µM
9,ALLGRMKG,10 µM and 11 µM
10,Ac-SLLGRMKG,26.2 ± 5 µM
11,HRSLLGRMKGA,0.5 ± 0.04 µM
12,"LDPAFR [LDPAFR, reference compound]",~360 µM
13,LGRMKG [LGRMKG],980 ± 157 µM
14,LLGRMKG [LLGRMKG],46.2 ± 7.4 µM
15,SLLGRMK [SLLGRMK],40.7 ± 4.8 µM
16,SLLGRMKG,6.4 ± 0.7 µM
17,SLLGRMKGA,2.4 ± 0.2 µM

# Same assay, conditions: free peptide; HBcAg-coated wells
row,Molecule,IC50: concentration of peptide required to inhibit the binding of L HBsAg to HBcAg at a half maximal level
1,ALLPRMKG,no
2,GRMKG (not fully specified),no^2
3,LLGRM (not fully specified),no

# Same assay, conditions: inhibition of L HBsAg binding to HBcAg
row,Molecule,fold improvement over the original ALLGRMKG peptide [fold]
1,CSCC[C@H](NC(=O)[C@H](CCCNC(=N)N)NC(=O)CNC(=O)[C@H](CC(C)C)NC(=O)[C@H](CC(C)C)NC(=O)[C@H](CO)NC(=O)[C@@H](N)CCCNC(=N)N)C(=O)N[C@@H](CCCCN)C(=O)NCC(=O)N[C@@H](C)C(=O)O,> 40

# Target: T2, HBcAg (Hepatitis B virus genotype D subtype adw, UniProt P03147)
# T2 construct: Purification of Particles Comprising Full-Length or Truncated HBcAg; made in house; host or cells: E. coli RB 791
# T2 sequence (P03147 whole entry, the tested form may be a part): as above
# Test: Peptide inhibition of fusion phage binding to HBcAg-coated wells
# Conditions: not given
# Description: Phage-Binding Assay in Solution. […] Aliquots (100 μl) of each mixture were transferred to polystyrene wells (no. 2585, Costar) that had been coated with HBcAg (20 μg/ml in PBS; 125 μl per well). After 1 hr at 6° C. the wells were washed 10 times with TBS/BSA at 0.2 mg/ml. Bound phage were recovered and titered as described in the previous section. All assays were done in triplicate. The HBcAg concentration range was 1.58-50 μM for experiments with phage B2 and B3 and was 0.63-20 μM for experiments with phage B4. For peptide inhibition experiments, fusion phage (10^9 pfu/ml; 200 μl) were incubated with various concentrations of peptide (1 mM-10 nM) in HBcAg-coated wells for 90 min at 6° C.
row,Molecule,inhibition of binding of fusion phage to HBcAg
1,"ALLTRILG (HBV Core Antigen Binding Peptide) [peptide including aa 21-27 of the S region, reference compound]",inability to inhibit
2,GRMKG (not fully specified),inability to inhibit

# Target: hepatitis B virus core antigen (HBcAg) (hepatitis B virus)
# Sequence (P03147 whole entry): as the sequence (P03147 whole entry, the tested form may be a part) above
# Test: peptide inhibition of 35S-labeled L HBsAg binding to HBcAg-coated wells
# Conditions: not given
row,Molecule,IC50 [µM]
1,peptide ALLGRMKG,11
2,peptide AcSLLGRMKG,26.2
3,peptide CLLGRMKC,652
4,peptide LGRMKG,980
5,peptide LLGRMKG,46.2
6,peptide SLLGRMK,40.7
7,peptide SLLGRMKG,6.4
8,peptide SLLGRMKG(β-A)C,1.8

# Target: hepatitis B virus core antigen (HBcAg) (hepatitis B virus)
# Test: as above
# Conditions: not given
# Remark: another data set of the same source
row,Molecule,IC50 [µM]
1,peptide ALLGRMKG,10
2,peptide LDPAFR,360

# Target: hepatitis B virus core antigen (HBcAg) (hepatitis B virus)
# Test: phage-binding assay in solution: phage incubated with HBcAg, free phage caught on HBcAg-coated wells and titered
# Conditions: not given
row,Molecule,KD^Rel (relative dissociation constant) [nM]
1,"ADGHRSSLLGRMKGA (peptide, not shown: large carriers) [phage 4B-7]",1.4
2,"ADGPRSSLLGRMKGA (peptide, not shown: large carriers) [phage 4A-2]",0.84
3,"ADGAHRSLLGRMKGA (peptide, not shown: large carriers) [phage 4A-3]",0.94
4,"ADGYQRSLLGRMKGA (peptide, not shown: large carriers) [phage 4A-28]",0.88
5,"ADGTQRSLLGRMKGA (peptide, not shown: large carriers) [phage 4A-26]",0.84
6,"ADGALLGRMKPA (peptide, not shown: large carriers) [phage 2]",767
7,"ADGSLLGRMKPA (peptide, not shown: large carriers) [phage 1]",322
8,"ADGALLGRMKRA (peptide, not shown: large carriers) [phage 6]",181
9,"ADGTLLGRMKLA (peptide, not shown: large carriers) [phage 4]",20
10,"ADRSLLGRMKGA (peptide, not shown: large carriers) [phage 2A-8]",1.09
11,"ADGSRSSLLGRMKGA (peptide, not shown: large carriers) [phage 4A-1]",1.96

# — patent US6544520B1, “Hepatitis B virus inhibitors” (priority 1996, dated 2003)
